Source: the supplement of paper PMC6757056
± gives the standard deviation of the averaged measurements.

B1: library; a variant is named by its letters at N, in order (parent)
chain: GCUGUCACCGAGAAACUGUGAAGUAUAUCUUAAACCUGGGCACUUAAAAGAUAUAUGGAGUUAGUAGUGCAACCUGCUCGGUCUGAUGAGUCCNNNNNNGGACGAAACAGC

Legend:
cyclic di-GMP [1] = variants of: B1; assay: FACS-Seq fitted mean relative fluorescence mCherry/BFP without ligand (log10 relative fluorescence); HEK293T; ligand: cyclic di-GMP (c-di-GMP-II aptamer); higher = higher reporter protein expression; conditions: ligand present: no
Summary of the method: (§1)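 An mCherry reporter containing the ribozyme switch and an EF1α-BFP marker were introduced by lentivirus into HEK293T libraries. Cells were enriched, incubated 48 h with or without ligand, sorted into 6 bins by mCherry/BFP, and bin genomic DNA was PCR-amplified, barcoded and sequenced on MiSeq. Fluorescence represents the normalized fitted normal mean of the bin counts. Fitting was done on log10(mCherry/BFP), scaling to five spiked-in control ribozymes.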

cyclic di-GMP [2] = variants of: B1; assay: normalized RNA/DNA level without ligand (relative to sTRSVctl = 100) (log10 (% of sTRSVctl)); HEK293T; ligand: cyclic di-GMP (c-di-GMP-II aptamer); higher = less ribozyme self-cleavage, higher mRNA level; conditions: reporter: mCherry (pCS4076), ligand present: no
Description: (§2)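 Hammerhead (sTRSV) ribozyme switch libraries with a ligand aptamer grafted on stem I and a randomized N4-6 loop II, cloned into the 3' UTR of mCherry and transiently transfected into HEK293T cells; RNA-Seq 72 h post transfection with ligand added 1 h before transfection; RNA read count / plasmid DNA read count normalized to the non-cleaving sTRSVctl (x100), log10; sequences with >100 DNA reads. FACS-Seq: lentiviral library sorted into 6 bins after 48 h ligand, log-normal fit mean of mCherry/BFP scaled to controls. Printed sequences are partial switch sequences.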

cyclic di-GMP [3] = variants of: B1; assay: FACS-Seq fitted mean relative fluorescence mCherry/BFP with ligand (log10 relative fluorescence); HEK293T; ligand: cyclic di-GMP (c-di-GMP-II aptamer); ligand concentration (+) FACS-Seq: 1 mM; higher = higher reporter protein expression; conditions: ligand present: yes
Summary of the method: as §1

cyclic di-GMP [4] = variants of: B1; assay: normalized RNA/DNA level with ligand (relative to sTRSVctl = 100) (log10 (% of sTRSVctl)); HEK293T; ligand: cyclic di-GMP (c-di-GMP-II aptamer); ligand concentration (+) RNA-Seq: 1 mM; higher = less ribozyme self-cleavage, higher mRNA level; conditions: reporter: mCherry (pCS4076), ligand present: yes
Description: as §2

Variant	FACS-Seq fitted mean (log10) (cyclic di-GMP [1])	normalized RNA/DNA level without ligand (log10) (cyclic di-GMP [2])	FACS-Seq fitted mean (log10) (cyclic di-GMP [3])	normalized RNA/DNA level with ligand (log10) (cyclic di-GMP [4])
AGCUGC	-0.105 ± 0.077	1.74 ± 0.044	0.255 ± 0.092	1.87 ± 0.14
GCGUAU	-0.304 ± 0.056	1.48 ± 0.043	0.0112 ± 0.012	1.72 ± 0.12
CGAUGA	-0.364 ± 0.049	1.47 ± 0.059	-0.172 ± 0.032	1.62 ± 0.12
CGAUGC	-0.127 ± 0.16	1.722 ± 0.014	0.202 ± 0.062	1.88 ± 0.049
UAAAAG	-0.3384 ± 0.0033	1.685 ± 0.0079	-0.102 ± 0.2	1.84 ± 0.1
UCUGAA	-0.341 ± 0.042	1.51 ± 0.079	-0.0714 ± 0.032	1.73 ± 0.099
UCUGAU	-0.331 ± 0.024	1.6 ± 0.061	-0.0535 ± 0.0022	1.83 ± 0.14
CGGCAC	-0.036 ± 0.21	1.64 ± 0.038	0.073 ± 0.042	1.8 ± 0.12
AUCCUG	-0.263 ± 0.061	1.67 ± 0.017	-0.151 ± 0.016	1.78 ± 0.13
CAACAA	-0.326 ± 0.062	1.37 ± 0.11	0.0147 ± 0.011	1.53 ± 0.1
UCCAGA	-0.246 ± 0.071	1.631 ± 0.014	0.0947 ± 0.062	1.82 ± 0.081
UCCAGC	-0.739 ± 0.051	1.66 ± 0.059	-0.609 ± 0.015	1.84 ± 0.15
UGUACU	-0.0524 ± 0.051	1.76 ± 0.05	0.296 ± 0.04	1.87 ± 0.094
CAGACA	-0.617 ± 0.0047	1.33 ± 0.059	-0.36 ± 0.034	1.51 ± 0.13
AUGCGA	-0.411 ± 0.064	1.49 ± 0.079	-0.0888 ± 0.022	1.66 ± 0.13
CGCUUU	-0.255 ± 0.035	1.46 ± 0.071	0.0291 ± 0.018	1.69 ± 0.073
UGAUGA	-0.253 ± 0.0055	1.58 ± 0.033	0.00931 ± 0.037	1.8 ± 0.099
ACUAAU	-0.784 ± 0.024	1.47 ± 0.052	-0.433 ± 0.047	1.68 ± 0.11

Variant	FACS-Seq fitted mean (log10) (cyclic di-GMP [1])	normalized RNA/DNA level without ligand (log10) (cyclic di-GMP [2])	FACS-Seq fitted mean (log10) (cyclic di-GMP [3])	normalized RNA/DNA level with ligand (log10) (cyclic di-GMP [4])
CGGGAG	-0.586 ± 0.063	1.68 ± 0.017	-0.113 ± 0.0022	1.79 ± 0.064
GUGUUA	-0.147 ± 0.075	1.58 ± 0.027	0.207 ± 0.022	1.77 ± 0.092
CAAAGA	-0.231 ± 0.15	1.47 ± 0.074	0.00425 ± 0.022	1.68 ± 0.1
GUAUCA	-0.201 ± 0.17	1.62 ± 0.02	0.0998 ± 0.097	1.78 ± 0.094
UGGCAU	0.119 ± 0.25	1.66 ± 0.11	0.414 ± 0.038	1.82 ± 0.043
CUAAUG	-0.485 ± 0.042	1.49 ± 0.13	-0.179 ± 0.011	1.7 ± 0.092
ACUGGG	-0.467 ± 0.024	1.58 ± 0.07	-0.104 ± 0.015	1.69 ± 0.11
AUGUUA	-0.342 ± 0.13	1.523 ± 0.0094	-0.0703 ± 0.042	1.73 ± 0.1
GAAGCA	-0.476 ± 0.078	1.8 ± 0.082	-0.329 ± 0.2	1.88 ± 0.15
AAGACG	-0.185 ± 0.037	1.54 ± 0.084	0.133 ± 0.15	1.73 ± 0.097
GUAAAA	-0.251 ± 0.15	1.57 ± 0.024	0.00851 ± 0.01	1.73 ± 0.094
AGGUGA	-0.464 ± 0.029	1.52 ± 0.1	-0.245 ± 0.0095	1.6 ± 0.083
ACUACA	-0.0979 ± 0.082	1.55 ± 0.03	0.212 ± 0.16	1.73 ± 0.11
CAGAUA	-0.713 ± 0.024	1.23 ± 0.053	-0.483 ± 0.0048	1.43 ± 0.065
AACAUG	0.0898 ± 0.039	1.54 ± 0.053	0.286 ± 0.039	1.72 ± 0.081
AACAUC	-0.233 ± 0.056	1.593 ± 0.012	0.0469 ± 0.033	1.75 ± 0.13
AGCAAU	-0.834 ± 0.048	1.74 ± 0.037	-0.638 ± 0.037	1.87 ± 0.16
